Holding throughout (details): tags: Calbiochem Human Skin
The target of data set [1] is T1, chymase (native, human skin mast cell) (Homo sapiens, UniProt P23946 P23946:22-247).
T1 sequence: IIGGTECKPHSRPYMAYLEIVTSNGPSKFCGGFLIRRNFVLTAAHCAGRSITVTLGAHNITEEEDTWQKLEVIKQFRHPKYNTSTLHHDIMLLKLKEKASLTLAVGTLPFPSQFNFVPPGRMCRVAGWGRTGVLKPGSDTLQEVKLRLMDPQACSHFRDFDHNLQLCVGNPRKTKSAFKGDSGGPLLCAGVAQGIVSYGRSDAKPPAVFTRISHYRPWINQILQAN
Nature of the data set: inhibition; angiotensin I substrate; second G of GGGG 2'-OMe. The protocol: (§1) The total volume of solution for an enzyme reaction in the assay was set to 50 μL, and the reaction was performed in solution C buffer. At first, native (manufactured by Calbiochem) was diluted with solution C to give 5 μL thereof. Here, the native is chymase purified from human skin mast cell. The nucleic acid was serially diluted with solution C at a concentration of 0.0027-2 μM to give 25 μL thereof. The chymase solution (5 μL) and the nucleic acid solution (25 μL) were mixed, and the mixture was incubated at 37° C. for 5 min. On the other hand, […] angiotensin I (manufactured by PEPTIDE […], INC.) was prepared in solution C to give 20 μL thereof, which was incubated at 37° C. for 5 min. […] The whole mixture was centrifuged at 4° C., 14000 rpm for 10 min, and the supernatant (30 μL) was used for the next fluorescence induction reaction.
(§2) The above-mentioned supernatant (30 μL) was added to a 96 well plate (black, manufactured by Costar), a solution (15 μL) of 2% o-phthalaldehyde (manufactured by SIGMA) in methanol and 0.3M NaOH solution (170 μL) were added to each well, and the mixture was incubated at room temperature for 10 min. […] The plate was set on a microplate reader SpectraMax190 (manufactured by Molecular device) and the fluorescence intensity was measured at an excitation wavelength of 355 nm and a fluorescence wavelength of 460 nm. […]

For data set [2], the target named is T1, chymase (native, human skin mast cell). As to the kind of experiment: inhibition; angiotensin I substrate; 40 kDa PEG. On the procedure: as §1, §2
Data set [3] shares this target. Nature of the data set: inhibition; angiotensin I substrate, 37 C, 1.8 mM Ca, 0.8 mM Mg, pH 7.6. On the procedure:
Whether the nucleic acids shown by SEQ ID NO: 9 and 10 inhibit the enzyme activity of chymase was determined by the following method. Angiotensin I is converted by chymase to angiotensin II, during which a peptide fragment His-Leu is released. Since the peptide His-Leu is fluorescently derivatized by o-phthalaldehyde, its fluorescence intensity can be quantitatively measured.
The total volume of solution for an enzyme reaction in the assay was set to 50 μL, and the reaction was performed in solution C buffer. At first, native (manufactured by Calbiochem) was diluted with solution C to give 5 μL thereof. Here, the native is chymase purified from human skin mast cell. […] The whole mixture was centrifuged at 4° C., 14000 rpm for 10 min, and the supernatant (30 μL) was used for the next fluorescence induction reaction.
The above-mentioned supernatant (30 μL) was added to a 96 well plate (black, manufactured by Costar), a solution (15 μL) of 2% o-phthalaldehyde (manufactured by SIGMA) in methanol and 0.3M NaOH solution (170 μL) were added to each well, and the mixture was incubated at room temperature for 10 min. […] The plate was set on a microplate reader SpectraMax190 (manufactured by Molecular device) and the fluorescence intensity was measured at an excitation wavelength of 355 nm and a fluorescence wavelength of 460 nm.

B1: SEQ ID NO: 33(9) (mixed)
RNA: AUGAUCGGACAUAACUAAUUAGGGGUGUCAA
modifications: idT-A(M)U(M)G(M)A(M)U(F)C(F)G(M)G(M)A(M)C(M)A(M)U(M)AAC(M)U(F)A(M)A(M)U(M)U(M)A(M)G(M)G(M)G(M)G(M)tG(M)U(M)C(M)A(M)A(M)-idT (F=2'-F, M=2'-OMe)
As a reminder, the IC50 is the point on the concentration scale where inhibition reaches its midpoint. A low value points to higher potency. B1 displayed a half-inhibitory concentration (IC50) in data set [1] of 1360 pM.

B2: SEQ ID NO: 33(18) (mixed)
RNA: B1 RNA
modifications: PEG-A(M)U(M)G(M)A(M)U(F)C(F)G(M)G(M)A(M)C(M)A(M)U(M)AAC(M)U(F)A(M)A(M)U(M)TA(M)G(M)GG(M)G(M)TG(M)U(M)C(M)A(M)A(M)-idT (F=2'-F, M=2'-OMe, PEG=40 kDa branched PEG)
In turn, B2 displayed an IC50 in data set [2] of 109 pM.

B3: SEQ ID NO: 9 (ssRNA)
RNA: GGGAACGAAGCGACAGACGUUCCAGCGUCUAAUACGUGAAUAACCUGAUCGUAGGGGGUUCAAGUACUGAGGACAGA
modifications: 2'-F pyrimidines (U, C); purines 2'-OH
On to B3, for which, in data set [3], the half-maximal inhibitory concentration (IC50) amounted to 220 pM.

Source of the values: US20210002644, “ANTI-CHYMASE APTAMER AND USE FOR SAME” (RIBOMIC INC., published 2021).
